Reference: patent US20200308270A1 (Zymeworks, published 2020)

target: T1, recombinant human IL-17A (human, UniProt Q16552 20-155, limits assumed); experiment: SPR (ProteOn), IL-17A immobilized, Fab analyte;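 note: IL-17A amine-coupled on a GLC sensor chip at roughly 75–200 RU, double-referenced sensorgrams fitted with a Langmuir binding model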
T1 construct: Bought reagent
T1 sequence (Q16552 20-155 limits assumed): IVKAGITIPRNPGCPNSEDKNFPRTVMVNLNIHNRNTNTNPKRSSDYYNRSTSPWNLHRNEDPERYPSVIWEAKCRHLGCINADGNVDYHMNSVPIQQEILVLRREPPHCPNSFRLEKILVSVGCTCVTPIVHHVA
Experimental: IL-17 affinity determination was carried out as follows. The IL-17A surface was generated using a GLC sensorchip activated by a 1:10 dilution of the standard BioRad sNHS/EDC solutions injected for 140s at 100 pt/min in the ligand (vertical) direction. Immediately after the activation, 1 to 4 microg/mL solution of IL-17A in 10 mM NaOAc pH 4.5 was injected in the ligand (vertical) direction at a flow rate of 25 or 100 microL/min until approximately 75-200 resonance units (RUs) were immobilized. Remaining active groups were quenched by a 140s injection of 1M ethanolamine at 100 μL/min also in the ligand direction. […] Firstly, two buffer injections for 30s at 100 microL/min in the analyte (horizontal) direction were used to stabilize the baseline. […] Sensorgrams were aligned and double-referenced using the buffer blank injection and interspots, and the resulting sensorgrams were analyzed using ProteOn Manager software v3.1. The double-referenced sensorgrams were fit to the Langmuir binding model.

Kd [nM] | Binder
0.3 | CAT-2200 designed Vlambda-Ckappa chimeric Fab, design 18 (E83F_D85T_T105E) (Fab, V domains shown) VH: not shown VL: NFMLTQPHSVSESPGKTVTISCTRSSGSLANYYVQWYQQRPGSSPTIVIFANNQRPSGVPDRFSGSIDSSSNSASLTISGLKTEDFATYYCQTYDPYSVVFGGGTKLEVLR
0.3 | CAT-2200 designed Vlambda-Ckappa chimeric Fab, design 19 (E83F_D85V_T105E) (Fab, V domains shown) VH: not shown VL: NFMLTQPHSVSESPGKTVTISCTRSSGSLANYYVQWYQQRPGSSPTIVIFANNQRPSGVPDRFSGSIDSSSNSASLTISGLKTEDFAVYYCQTYDPYSVVFGGGTKLEVLR
0.3 | CAT-2200 designed Vlambda-Ckappa chimeric Fab, design 14 (E83F) (Fab, V domains shown) VH: not shown VL: NFMLTQPHSVSESPGKTVTISCTRSSGSLANYYVQWYQQRPGSSPTIVIFANNQRPSGVPDRFSGSIDSSSNSASLTISGLKTEDFADYYCQTYDPYSVVFGGGTKLTVLR
0.2 | CAT-2200 designed Vlambda-Ckappa chimeric Fab, design 34 (E83I_D85T_T105E_V106I) (Fab, V domains shown) VH: not shown VL: NFMLTQPHSVSESPGKTVTISCTRSSGSLANYYVQWYQQRPGSSPTIVIFANNQRPSGVPDRFSGSIDSSSNSASLTISGLKTEDIATYYCQTYDPYSVVFGGGTKLEILR
0.4 | CAT-2200 designed Vlambda-Ckappa chimeric Fab, design 25 (E83V_V106I) (Fab, V domains shown) VH: not shown VL: NFMLTQPHSVSESPGKTVTISCTRSSGSLANYYVQWYQQRPGSSPTIVIFANNQRPSGVPDRFSGSIDSSSNSASLTISGLKTEDVADYYCQTYDPYSVVFGGGTKLTILR
0.2 | CAT-2200 designed Vlambda-Ckappa chimeric Fab, design 35 (E83A) (Fab, V domains shown) VH: not shown VL: NFMLTQPHSVSESPGKTVTISCTRSSGSLANYYVQWYQQRPGSSPTIVIFANNQRPSGVPDRFSGSIDSSSNSASLTISGLKTEDAADYYCQTYDPYSVVFGGGTKLTVLR
0.2 | CAT-2200 designed Vlambda-Ckappa chimeric Fab, design 39 (E83A_D85T_T105E_V106I) (Fab, V domains shown) VH: not shown VL: NFMLTQPHSVSESPGKTVTISCTRSSGSLANYYVQWYQQRPGSSPTIVIFANNQRPSGVPDRFSGSIDSSSNSASLTISGLKTEDAATYYCQTYDPYSVVFGGGTKLEILR
0.3 | CAT-2200 designed Vlambda-Ckappa chimeric Fab, design 32 (E83I_D85T) (Fab, V domains shown) VH: not shown VL: NFMLTQPHSVSESPGKTVTISCTRSSGSLANYYVQWYQQRPGSSPTIVIFANNQRPSGVPDRFSGSIDSSSNSASLTISGLKTEDIATYYCQTYDPYSVVFGGGTKLTVLR
0.3 | CAT-2200 designed Vlambda-Ckappa chimeric Fab, design 15 (E83F_T105E) (Fab, V domains shown) VH: not shown VL: NFMLTQPHSVSESPGKTVTISCTRSSGSLANYYVQWYQQRPGSSPTIVIFANNQRPSGVPDRFSGSIDSSSNSASLTISGLKTEDFADYYCQTYDPYSVVFGGGTKLEVLR
0.3 | CAT-2200 designed Vlambda-Ckappa chimeric Fab, design 24 (E83V_T105E) (Fab, V domains shown) VH: not shown VL: NFMLTQPHSVSESPGKTVTISCTRSSGSLANYYVQWYQQRPGSSPTIVIFANNQRPSGVPDRFSGSIDSSSNSASLTISGLKTEDVADYYCQTYDPYSVVFGGGTKLEVLR
0.3 | CAT-2200 designed Vlambda-Ckappa chimeric Fab, design 26 (E83V_D85T) (Fab, V domains shown) VH: not shown VL: NFMLTQPHSVSESPGKTVTISCTRSSGSLANYYVQWYQQRPGSSPTIVIFANNQRPSGVPDRFSGSIDSSSNSASLTISGLKTEDVATYYCQTYDPYSVVFGGGTKLTVLR
0.2 | CAT-2200 designed Vlambda-Ckappa chimeric Fab, design 38 (E83A_D85T_T105E) (Fab, V domains shown) VH: not shown VL: NFMLTQPHSVSESPGKTVTISCTRSSGSLANYYVQWYQQRPGSSPTIVIFANNQRPSGVPDRFSGSIDSSSNSASLTISGLKTEDAATYYCQTYDPYSVVFGGGTKLEVLR
0.3 | CAT-2200 designed Vlambda-Ckappa chimeric Fab, design 17 (E83F_D85T) (Fab, V domains shown) VH: not shown VL: NFMLTQPHSVSESPGKTVTISCTRSSGSLANYYVQWYQQRPGSSPTIVIFANNQRPSGVPDRFSGSIDSSSNSASLTISGLKTEDFATYYCQTYDPYSVVFGGGTKLTVLR
0.2 | CAT-2200 designed Vlambda-Ckappa chimeric Fab, design 23 (E83V) (Fab, V domains shown) VH: not shown VL: NFMLTQPHSVSESPGKTVTISCTRSSGSLANYYVQWYQQRPGSSPTIVIFANNQRPSGVPDRFSGSIDSSSNSASLTISGLKTEDVADYYCQTYDPYSVVFGGGTKLTVLR
0.2 | CAT-2200 designed Vlambda-Ckappa chimeric Fab, design 27 (E83V_D85T_T105E) (Fab, V domains shown) VH: not shown VL: NFMLTQPHSVSESPGKTVTISCTRSSGSLANYYVQWYQQRPGSSPTIVIFANNQRPSGVPDRFSGSIDSSSNSASLTISGLKTEDVATYYCQTYDPYSVVFGGGTKLEVLR
0.3 | CAT-2200 designed Vlambda-Ckappa chimeric Fab, design 21 (E83F_D85V_T105E_V106I) (Fab, V domains shown) VH: not shown VL: NFMLTQPHSVSESPGKTVTISCTRSSGSLANYYVQWYQQRPGSSPTIVIFANNQRPSGVPDRFSGSIDSSSNSASLTISGLKTEDFAVYYCQTYDPYSVVFGGGTKLEILR
0.3 | CAT-2200 designed Vlambda-Ckappa chimeric Fab, design 29 (E83V_D85T_T105E_V106I) (Fab, V domains shown) VH: not shown VL: NFMLTQPHSVSESPGKTVTISCTRSSGSLANYYVQWYQQRPGSSPTIVIFANNQRPSGVPDRFSGSIDSSSNSASLTISGLKTEDVATYYCQTYDPYSVVFGGGTKLEILR
0.3 | CAT-2200 designed Vlambda-Ckappa chimeric Fab, design 16 (E83F_V106I) (Fab, V domains shown) VH: not shown VL: NFMLTQPHSVSESPGKTVTISCTRSSGSLANYYVQWYQQRPGSSPTIVIFANNQRPSGVPDRFSGSIDSSSNSASLTISGLKTEDFADYYCQTYDPYSVVFGGGTKLTILR
0.2 | CAT-2200 designed Vlambda-Ckappa chimeric Fab, design 37 (E83A_D85T) (Fab, V domains shown) VH: not shown VL: NFMLTQPHSVSESPGKTVTISCTRSSGSLANYYVQWYQQRPGSSPTIVIFANNQRPSGVPDRFSGSIDSSSNSASLTISGLKTEDAATYYCQTYDPYSVVFGGGTKLTVLR
0.3 | CAT-2200 designed Vlambda-Ckappa chimeric Fab, design 36 (E83A_T105E) (Fab, V domains shown) VH: not shown VL: NFMLTQPHSVSESPGKTVTISCTRSSGSLANYYVQWYQQRPGSSPTIVIFANNQRPSGVPDRFSGSIDSSSNSASLTISGLKTEDAADYYCQTYDPYSVVFGGGTKLEVLR
0.3 | CAT-2200 designed Vlambda-Ckappa chimeric Fab, design 33 (E83I_D85T_T105E) (Fab, V domains shown) VH: not shown VL: NFMLTQPHSVSESPGKTVTISCTRSSGSLANYYVQWYQQRPGSSPTIVIFANNQRPSGVPDRFSGSIDSSSNSASLTISGLKTEDIATYYCQTYDPYSVVFGGGTKLEVLR
0.3 | CAT-2200 designed Vlambda-Ckappa chimeric Fab, design 31 (E83I_T105E) (Fab, V domains shown) VH: not shown VL: NFMLTQPHSVSESPGKTVTISCTRSSGSLANYYVQWYQQRPGSSPTIVIFANNQRPSGVPDRFSGSIDSSSNSASLTISGLKTEDIADYYCQTYDPYSVVFGGGTKLEVLR
0.3 | CAT-2200 designed Vlambda-Ckappa chimeric Fab, design 20 (E83F_D85T_T105E_V106I) (Fab, V domains shown) VH: not shown VL: NFMLTQPHSVSESPGKTVTISCTRSSGSLANYYVQWYQQRPGSSPTIVIFANNQRPSGVPDRFSGSIDSSSNSASLTISGLKTEDFATYYCQTYDPYSVVFGGGTKLEILR
0.3 | CAT-2200 designed Vlambda-Ckappa chimeric Fab, design 30 (E83I) (Fab, V domains shown) VH: not shown VL: NFMLTQPHSVSESPGKTVTISCTRSSGSLANYYVQWYQQRPGSSPTIVIFANNQRPSGVPDRFSGSIDSSSNSASLTISGLKTEDIADYYCQTYDPYSVVFGGGTKLTVLR
0.2 | CAT-2200 designed Vlambda-Ckappa chimeric Fab, design 28 (E83V_D85V_T105E) (Fab, V domains shown) VH: not shown VL: NFMLTQPHSVSESPGKTVTISCTRSSGSLANYYVQWYQQRPGSSPTIVIFANNQRPSGVPDRFSGSIDSSSNSASLTISGLKTEDVAVYYCQTYDPYSVVFGGGTKLEVLR

target: T2, recombinant human HER3 (human, UniProt P21860 20-643); experiment: SPR (Biacore T200), HER3 captured via anti-His, Fab analyte;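 note: single cycle kinetics with five Fab concentrations, referenced against a blank flow cell and mock-buffer injections, sensorgrams fit to a 1:1 binding model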
T2 construct: Bought reagent
Experimental: HER3 affinity determination in Fabs was carried out as follows. The screening of Fabs (preparative SEC purified) for binding to HER3 antigen occurred in two steps: an indirect capture of HER3 onto the anti-His antibody, followed by the injection of five concentrations of Fabs, for kinetic analysis using single cycle kinetics. […] HER3 was injected at 4-8 μg/mL over the active flow cell for 60 s at a flow rate of 10 μL/min. […] HER3 was not captured on the reference (blank) flow cell. […] The captured HER3 surfaces were regenerated by 10 mM glycine pH 1.5 for 120 s at 30 μL/min to prepare the surfaces for the next injection cycle. At least two mock-buffer injections were performed for each analyte injection and used for referencing. The resulting single cycle kinetics sensorgrams were analyzed using Biacore T200 BiaEvaluation software version 3.0 and fit to the 1:1 binding model.

Kd [nM] | Binder
59.1 | H3 designed Vlambda-Ckappa chimeric Fab, design 35 (E83A) (Fab, name in Kabat numbering, V domains shown) VH: QVQLQESGGGLVKPGGSLRLSCAASGFTFSSYWMSWVRQAPGKGLEWVANINRDGSASYYVDSVKGRFTISRDDAKNSLYLQMNSLRAEDTAVYYCARDRGVGYFDLWGRGTLVTVSS VL: QSALTQPASVSGSPGQSITISCTGTSSDVGGYNFVSWYQQHPGKAPKLMIYDVSDRPSGVSDRFSGSKSGNTASLIISGLQADDAADYYCSSYGSSSTHVIFGGGTKVTVLR
92.4 | H3 wild-type lambda Fab (Fab, V domains shown, Truncated heavy chain (VH-CH1-upper IgG1 hinge) and 'wild-type' lambda light chain (H3 VL + IGLC2); also called WT; H3 Fab) VH: QVQLQESGGGLVKPGGSLRLSCAASGFTFSSYWMSWVRQAPGKGLEWVANINRDGSASYYVDSVKGRFTISRDDAKNSLYLQMNSLRAEDTAVYYCARDRGVGYFDLWGRGTLVTVSS VL: QSALTQPASVSGSPGQSITISCTGTSSDVGGYNFVSWYQQHPGKAPKLMIYDVSDRPSGVSDRFSGSKSGNTASLIISGLQADDEADYYCSSYGSSSTHVIFGGGTKVTVLG
66.4 | H3 designed Vlambda-Ckappa chimeric Fab, design 36 (E83A_T105E) (Fab, name in Kabat numbering, V domains shown) VH: QVQLQESGGGLVKPGGSLRLSCAASGFTFSSYWMSWVRQAPGKGLEWVANINRDGSASYYVDSVKGRFTISRDDAKNSLYLQMNSLRAEDTAVYYCARDRGVGYFDLWGRGTLVTVSS VL: QSALTQPASVSGSPGQSITISCTGTSSDVGGYNFVSWYQQHPGKAPKLMIYDVSDRPSGVSDRFSGSKSGNTASLIISGLQADDAADYYCSSYGSSSTHVIFGGGTKVEVLR
72.2 | H3 designed Vlambda-Ckappa chimeric Fab, design 38 (E83A_D85T_T105E) (Fab, name in Kabat numbering, V domains shown) VH: QVQLQESGGGLVKPGGSLRLSCAASGFTFSSYWMSWVRQAPGKGLEWVANINRDGSASYYVDSVKGRFTISRDDAKNSLYLQMNSLRAEDTAVYYCARDRGVGYFDLWGRGTLVTVSS VL: QSALTQPASVSGSPGQSITISCTGTSSDVGGYNFVSWYQQHPGKAPKLMIYDVSDRPSGVSDRFSGSKSGNTASLIISGLQADDAATYYCSSYGSSSTHVIFGGGTKVEVLR
83.5 | H3 designed Vlambda-Ckappa chimeric Fab, design 37 (E83A_D85T) (Fab, name in Kabat numbering, V domains shown) VH: QVQLQESGGGLVKPGGSLRLSCAASGFTFSSYWMSWVRQAPGKGLEWVANINRDGSASYYVDSVKGRFTISRDDAKNSLYLQMNSLRAEDTAVYYCARDRGVGYFDLWGRGTLVTVSS VL: QSALTQPASVSGSPGQSITISCTGTSSDVGGYNFVSWYQQHPGKAPKLMIYDVSDRPSGVSDRFSGSKSGNTASLIISGLQADDAATYYCSSYGSSSTHVIFGGGTKVTVLR
89.6 | H3 designed Vlambda-Ckappa chimeric Fab, design 39 (E83A_D85T_T105E_V106I) (Fab, name in Kabat numbering, V domains shown) VH: QVQLQESGGGLVKPGGSLRLSCAASGFTFSSYWMSWVRQAPGKGLEWVANINRDGSASYYVDSVKGRFTISRDDAKNSLYLQMNSLRAEDTAVYYCARDRGVGYFDLWGRGTLVTVSS VL: QSALTQPASVSGSPGQSITISCTGTSSDVGGYNFVSWYQQHPGKAPKLMIYDVSDRPSGVSDRFSGSKSGNTASLIISGLQADDAATYYCSSYGSSSTHVIFGGGTKVEILR
